Here are results for two substances from US5922685.

Assay [1] has as its target CD8 (mouse).
Assay [2] concerns the target CD4 (mouse) (UniProt P06332).

As to anti-CD8 mAb (clone 2.43) (antibody), the depletion of T cell subset in mice in assay [1] was over 90%. As to anti-CD4 mAb (clone GK1.5) (antibody), in assay [2], the depletion of T cell subset in mice is over 90%.
